The target of the assay is T1, mouse MMP-2 (Mus musculus, UniProt P33434).
T1 construct: purchased R&D Systems 924-MP-010
Description: Enzyme inhibition assay (single point inhibition, IC50/Ki,app), substrate M-2350. The settings on record: Table 10. It counts as biochemical. As for the experimental part:
343 unique sFabs from the anti-MMP-9/-2 M237-D02 affinity maturation campaign were discovered by phage display, produced in small scale (6 mL cultures in deep 24-well plates) and screened to select inhibitors with sub-nanomolar potency against the human enzymes and at least single-digit nanomolar potency toward the mouse orthologues. […] Isolates which appeared potent against both human and mouse MMP-2 were then subjected to IC50 analysis against hMMP-9. Sub-nanomolar inhibitors of hMMP-9 were further tested by IC50 analysis against mMMP-9 and h/m MMP-2, if sufficient small-scale sFab material was available. Thirteen potential h/m MMP-9/-2 sFab inhibitors were then produced in medium scale (250 mL cultures in flasks) and retested for h/m MMP-9 and h/m MMP-2 inhibition. Five potential lead candidates were reformatted as IgGs and retested in enzyme inhibition assays.
Human MMP-9 (Biomol #SE-244), mouse MMP-9 (R&D Systems #909-MM-010), human MMP-2 (Biomol #SE-237) and mouse MMP-2 (R&D Systems #924-MP-010) were tested at final concentrations of 1 nM, 0.25-0.4 nM, 2.5 nM and 0.2 nM, respectively. Target enzymes were incubated with inhibitor for two hours at 30° C. in reaction buffer (50 mM Tris-HCl pH 7.5, 150 mM NaCl, 5 mM CaCl2, 0.05% Brij-35) in a total volume of 90 μL using a white 96 well plate (Costar). Reactions contained 5 μL of small-scale sFab stock solution (average concentration of 500 nM) for single point inhibition analysis or a concentration series of sFab/IgG for IC50 Ki,app determinations. Commercially available anti-MMP-9 antibodies (Millipore mAb 13415 and R&D Systems polyclonal IgG #AB911) were tested by IC50 analyses using 100 nM and 500 nM as the highest inhibitor concentrations, respectively. An anti-MMP-2 antibody (R&D Systems polyclonal IgG #AF902) was similarly tested with 200 nM as the highest inhibitor concentration. Reactions were initiated by the addition of 10 μL of a 10× concentrated stock of substrate, Mca-Lys-Pro-Leu-Gly-Leu-Dap(Dnp)-Ala-Arg-NH2, (Bachem M-2350), at final concentration of 10 μM and monitored at 30° C. in a Molecular Devices' Gemini fluorescence plate reader. The excitation and emission wavelengths were set at 328 nm and 393 nm, respectively. Kinetic data were acquired by the increase in fluorescence, and initial rates for each condition were plotted against the total inhibitor concentration. Reactions were performed in duplicates and all data replicates were plotted in a single graph and fit to the following equation^1:
Where A=initial rate observed at each inhibitor concentration; Ao=initial rate observed in the absence of inhibitor; Ainh=initial rate observed for the enzyme inhibitor complex; Inh=concentration of inhibitor; E=total enzyme concentration (treated as a floated parameter); and Ki,app=apparent equilibrium inhibition constant.

T1 sequence (P33434 110-662): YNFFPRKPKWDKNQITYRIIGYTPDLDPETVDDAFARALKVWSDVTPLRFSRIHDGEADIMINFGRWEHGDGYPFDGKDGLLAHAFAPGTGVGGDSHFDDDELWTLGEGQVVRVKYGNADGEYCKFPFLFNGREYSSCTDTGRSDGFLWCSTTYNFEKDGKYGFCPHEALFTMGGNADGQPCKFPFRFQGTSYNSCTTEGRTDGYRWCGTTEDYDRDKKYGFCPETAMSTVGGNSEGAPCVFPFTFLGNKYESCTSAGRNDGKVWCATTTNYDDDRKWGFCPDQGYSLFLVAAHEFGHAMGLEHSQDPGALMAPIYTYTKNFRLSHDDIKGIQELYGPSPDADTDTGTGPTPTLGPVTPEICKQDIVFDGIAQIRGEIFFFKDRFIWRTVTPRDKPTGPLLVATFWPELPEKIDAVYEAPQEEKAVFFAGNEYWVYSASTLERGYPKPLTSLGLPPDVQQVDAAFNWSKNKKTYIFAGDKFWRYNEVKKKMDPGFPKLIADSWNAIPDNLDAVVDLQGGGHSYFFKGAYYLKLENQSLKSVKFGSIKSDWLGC

B1: M0299-A12: affinity matured variant of M237-D02, sFab (antibody, V domains shown)
VH: EVQLLESGGGLVQPGGSLRLSCAASGFTFSHYPMWWVRQAPGKGLEWVSYISSSGGGTFYADSVKGRFTISRDNSKNTLYLQMNSLRAEDTAVYYCAKDRAYGDYVGWNGFDYWGQGTLVTVSS
VL: QDIQMTQSPATLSLSPGERATLSCRASQSISSFLAWYQQKPGQAPRLLIYDASYRATGIPARFSGSGSGTDFTLTISSLEPEDYAVYYCQQRGNWPITFGQGTRLEIK
Consider B1, for which the Ki (medium-scale sFab) was 30 nM and the Ki (small-scale sFab) is 30 nM.

B2: M0273-C10: affinity matured variant of M237-D02, sFab (antibody, V domains shown)
VH: EVQLLESGGGLVQPGGSLRLSCAASGFTFSFYPMWWVRQAPGKGLEWVSYIYPSGGATFYADSVKGRFTISRDNSKNTLYLQMNSLRAEDTAVYYCAKDRAYGDYVGWNGFDYWGQGTLVTVSS
VL: QDIQMTQSPATLSLSPGERATLSCRASQSISSFLAWYQQKPGQAPRLLIYDASYRATGIPARFSGSGSGTDFTLTISSLEPEDYAVYYCQQRGNWPITFGQGTRLEIK
B2: the Ki reads like this: (medium-scale sFab) 18 nM; (small-scale sFab) 18 nM.

B3: M0272-H08: affinity matured variant of M237-D02, sFab (antibody, V domains shown)
VH: EVQLLESGGGLVQPGGSLRLSCAASGFTFSAYDMWWVRQAPGKGLEWVSVIYPSGGTTFYADSVKGRFTISRDNSKNTLYLQMNSLRAEDTAVYYCAKDRAYGDYVGWNGFDYWGQGTLVTVSS
VL: QDIQMTQSPATLSLSPGERATLSCRASQSISSFLAWYQQKPGQAPRLLIYDASYRATGIPARFSGSGSGTDFTLTISSLEPEDYAVYYCQQRGNWPITFGQGTRLEIK
B3: the Ki worked out at 46 nM (medium-scale sFab) and 46 nM (small-scale sFab).

B4: M0275-E12: affinity matured variant of M237-D02, sFab (antibody, V domains shown)
VH: EVQLLESGGGLVQPGGSLRLSCAASGFTFSHYDMWWVRQAPGKGLEWVSVIYSSGGFTGYADSVKGRFTISRDNSKNTLYLQMNSLRAEDTAVYYCAKDRAYGDYVGWNGFDYWGQGTLVTVSS
VL: QDIQMTQSPATLSLSPGERATLSCRASQSISSFLAWYQQKPGQAPRLLIYDASYRATGIPARFSGSGSGTDFTLTISSLEPEDYAVYYCQQRGNWPITFGQGTRLEIK
Consider B4, for which the Ki came to 15 nM (medium-scale sFab) and 15 nM (small-scale sFab).

B5: M0273-B10: affinity matured variant of M237-D02, sFab (antibody, V domains shown)
VH: EVQLLESGGGLVQPGGSLRLSCAASGFTFSKYAMIWVRQAPGKGLEWVSWIPPSGGYTSYADSVKGRFTISRDNSKNTLYLQMNSLRAEDTAVYYCAKDRAYGDYVGWNGFDYWGQGTLVTVSS
VL: QDIQMTQSPATLSLSPGERATLSCRASQSISSFLAWYQQKPGQAPRLLIYDASYRATGIPARFSGSGSGTDFTLTISSLEPEDYAVYYCQQRGNWPITFGQGTRLEIK
As to B5, the Ki by setting is: (medium-scale sFab) 59 nM; (small-scale sFab) 59 nM.

B6: M0256-D11: affinity matured variant of M237-D02, sFab (antibody, V domains shown)
VH: EVQLLESGGGLVQPGGSLRLSCAASGFTFSHYDMWWVRQAPGKGLEWVSVIYSSGGPTFYADSVKGRFTISRDNSKNTLYLQMNSLRAEDTAVYYCAKDRAYGDYVGWNGFDYWGQGTLVTVSS
VL: QDIQMTQSPATLSLSPGERATLSCRASQSISSFLAWYQQKPGQAPRLLIYDASYRATGIPARFSGSGSGTDFTLTISSLEPEDYAVYYCQQRGNWPITFGQGTRLEIK
With B6, the Ki by setting is: (medium-scale sFab) 4.2 nM; (small-scale sFab) 4.2 nM.

B7: M0274-G08: affinity matured variant of M237-D02, sFab (antibody, V domains shown)
VH: EVQLLESGGGLVQPGGSLRLSCAASGFTFSVYDMWWVRQAPGKGLEWVSVIYPSGGATYYADSVKGRFTISRDNSKNTLYLQMNSLRAEDTAVYYCAKDRAYGDYVGWNGFDYWGQGTLVTVSS
VL: QDIQMTQSPATLSLSPGERATLSCRASQSISSFLAWYQQKPGQAPRLLIYDASYRATGIPARFSGSGSGTDFTLTISSLEPEDYAVYYCQQRGNWPITFGQGTRLEIK
Turning to B7, the Ki amounted to 2.7 nM (medium-scale sFab) and 2.7 nM (small-scale sFab).

B8: M0275-D03: affinity matured variant of M237-D02, sFab (antibody, V domains shown)
VH: EVQLLESGGGLVQPGGSLRLSCAASGFTFSQYDMWWVRQAPGKGLEWVSVIYPSGTTFYADSVKGRFTISRDNSKNTLYLQMNSLRAEDTAVYYCAKDRAYGDYVGWNGFDYWGQGTLVTVSS
VL: QDIQMTQSPATLSLSPGERATLSCRASQSISSFLAWYQQKPGQAPRLLIYDASYRATGIPARFSGSGSGTDFTLTISSLEPEDYAVYYCQQRGNWPITFGQGTRLEIK
Regarding B8, the Ki by setting is: (medium-scale sFab) 5.4 nM; (small-scale sFab) 5.4 nM.

B9: M0301-A09: affinity matured variant of M237-D02, sFab (antibody, V domains shown)
VH: EVQLLESGGGLVQPGGSLRLSCAASGFTFSYYDMWWVRQAPGKGLEWVSVIYPSGGYTAYADSVKGRFTISRDNSKNTLYLQMNSLRAEDTAVYYCAKDRAYGDYVGWNGFDYWGQGTLVTVSS
VL: QDIQMTQSPATLSLSPGERATLSCRASQSISSFLAWYQQKPGQAPRLLIYDASYRATGIPARFSGSGSGTDFTLTISSLEPEDYAVYYCQQRGNWPITFGQGTRLEIK
For B9, the Ki runs as follows: (medium-scale sFab) 21 nM; (small-scale sFab) 21 nM.

B10: M0276-F11: affinity matured variant of M237-D02, sFab (antibody, V domains shown)
VH: EVQLLESGGGLVQPGGSLRLSCAASGFTFSWYDMWWVRQAPGKGLEWVSVIYSSGGPTFYADSVKGRFTISRDNSKNTLYLQMNSLRAEDTAVYYCAKDRAYGDYVGWNGFDYWGQGTLVTVSS
VL: QDIQMTQSPATLSLSPGERATLSCRASQSISSFLAWYQQKPGQAPRLLIYDASYRATGIPARFSGSGSGTDFTLTISSLEPEDYAVYYCQQRGNWPITFGQGTRLEIK
As to B10, the Ki is, setting by setting: (medium-scale sFab) 3.7 nM; (small-scale sFab) 3.7 nM.

B11: M0273-G07: affinity matured variant of M237-D02, sFab (antibody, V domains shown)
VH: EVQLLESGGGLVQPGGSLRLSCAASGFTFSHYDMWWVRQAPGKGLEWVSVIYPSGGPTYYADSVKGRFTISRDNSKNTLYLQMNSLRAEDTAVYYCAKDRAYGDYVGWNGFDYWGQGTLVTVSS
VL: QDIQMTQSPATLSLSPGERATLSCRASQSISSFLAWYQQKPGQAPRLLIYDASYRATGIPARFSGSGSGTDFTLTISSLEPEDYAVYYCQQRGNWPITFGQGTRLEIK
Consider B11, for which the Ki is 22 nM (medium-scale sFab) and 22 nM (small-scale sFab).

B12: M0273-A11: affinity matured variant of M237-D02, sFab (antibody, V domains shown)
VH: EVQLLESGGGLVQPGGSLRLSCAASGFTFSRYDMWWVRQAPGKGLEWVSVISPSGGATFYADSVKGRFTISRDNSKNTLYLQMNSLRAEDTAVYYCAKDRAYGDYVGWNGFDYWGQGTLVTVSS
VL: QDIQMTQSPATLSLSPGERATLSCRASQSISSFLAWYQQKPGQAPRLLIYDASYRATGIPARFSGSGSGTDFTLTISSLEPEDYAVYYCQQRGNWPITFGQGTRLEIK
Regarding B12, the Ki turned out to be 32 nM (medium-scale sFab) and 32 nM (small-scale sFab).

B13: M0301-D12: affinity matured variant of M237-D02, sFab (antibody, V domains shown)
VH: EVQLLESGGGLVQPGGSLRLSCAASGFTFSMYDMWWVRQAPGKGLEWVSVIYSSGGYTSYADSVKGRFTISRDNSKNTLYLQMNSLRAEDTAVYYCAKDRAYGDYVGWNGFDYWGQGTLVTVSS
VL: QDIQMTQSPATLSLSPGERATLSCRASQSISSFLAWYQQKPGQAPRLLIYDASYRATGIPARFSGSGSGTDFTLTISSLEPEDYAVYYCQQRGNWPITFGQGTRLEIK
With B13, the Ki by setting is: (medium-scale sFab) 25 nM; (small-scale sFab) 25 nM.

B14: M0307-F04: affinity matured variant of M237-D02, sFab (antibody, V domains shown)
VH: EVQLLESGGGLVQPGGSLRLSCAASGFTFSLYDMWWVRQAPGKGLEWVSVIYSSGGYTGYADSVKGRFTISRDNSKNTLYLQMNSLRAEDTAVYYCAKDRAYGDYVGWNGFDYWGQGTLVTVSS
VL: QDIQMTQSPATLSLSPGERATLSCRASQSISSFLAWYQQKPGQAPRLLIYDASYRATGIPARFSGSGSGTDFTLTISSLEPEDYAVYYCQQRGNWPITFGQGTRLEIK
With B14, the Ki was found to be 2.2 nM (medium-scale sFab) and 2.2 nM (small-scale sFab).

The values are drawn from US20110135573A1, “METALLOPROTEINASE 9 AND METALLOPROTEINASE 2 BINDING PROTEINS” (DYAX CORP., priority 2009, published 2011).
